Measured values: the supplement of paper PMC10126150
± gives the standard deviation of the averaged measurements.

test system: ATP; experiment: switch fluorescence ratio, 500 uM ATP over buffer (Cy3 cluster intensity, sum of 5 cycles each) (fold (ratio)); higher = stronger signal-on switching upon ATP binding; sequences stand for … in TCGTCGGCAGCGTCAGATGTGTATAAGAGACAGTTTTTTTTTTTTTTTTTTTTTTTTT…TC; conditions: aptamer strand: ATP DNA aptamer (quencher-CACCTGGGGGAGTATTGCGGAGGAAGG + anchor), 100 nM annealed; ATP concentration: 500 uM
Outline: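 For every switch-domain sequence, the fluorescence ratio is the mean of per-cluster values, each being summed target-cycle Cy3 intensity over summed buffer-cycle Cy3 intensity. Clusters outside 100-1000 RFU were excluded. On a modified Illumina MiSeq flow-cell, the Cy3-labelled switching-strand clusters were annealed to 100 nM quencher-labelled ATP aptamer, imaged in selection buffer and then after 15 min with 500 uM ATP at 22 °C. Five such cycles were run, with NaOH stripping and re-annealing between them.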
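Note: ATP exposure 15 min at 22 °C before imaging.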

| Sequence | switch fluorescence ratio |
| --- | --- |
| TTTTTGGGCT | 0.996 ± 0.028 |
| TTTTTGGGTG | 1.03 ± 0.058 |
| TTTTTGGTA | 0.985 ± 0.011 |
| TTTTTGGTAG | 1 ± 0.042 |
| TTTTTGGTCG | 0.993 ± 0.086 |
| TTTTTGGTCT | 0.997 ± 0.027 |
| TTTTTGGTGG | 1 ± 0.032 |
| TTTTTGTACT | 1.11 ± 0.083 |
| TTTTTGTATC | 0.968 ± 0.022 |
| TTTTTGTCAC | 1.03 ± 0.038 |
| TTTTTGTGAT | 1.02 ± 0.032 |
| TTTTTGTGGA | 1.03 ± 0.019 |
| TTTTTGTGGT | 1 ± 0.036 |
| TTTTTGTGTG | 0.993 ± 0.023 |
| TTTTTGTTGA | 0.991 ± 0.026 |
| TTTTTGTTTT | 1 ± 0.035 |
| TTTTTTAAAA | 0.995 ± 0.03 |
| TTTTTTAATT | 1.03 ± 0.071 |
| TTTTTTACGA | 1.04 ± 0.028 |
| TTTTTTACTA | 1.023 ± 0.0015 |

| Sequence | switch fluorescence ratio |
| --- | --- |
| TTTTTTAGCG | 0.99 ± 0.029 |
| TTTTTTATA | 0.996 ± 0.032 |
| TTTTTTATAA | 1.01 ± 0.023 |
| TTTTTTCAAT | 1.03 ± 0.029 |
| TTTTTTCAGA | 0.975 ± 0.029 |
| TTTTTTCCGA | 1.02 ± 0.046 |
| TTTTTTCCTC | 1.1 ± 0.2 |
| TTTTTTCGGT | 1.01 ± 0.051 |
| TTTTTTCTAC | 1.31 ± 0.67 |
| TTTTTTCTCG | 1.04 ± 0.078 |
| TTTTTTCTTA | 0.995 ± 0.023 |
| TTTTTTCTTG | 1.02 ± 0.034 |
| TTTTTTGACG | 0.9938 ± 0.0062 |
| TTTTTTGAGG | 0.981 ± 0.025 |
| TTTTTTGAGT | 1 ± 0.023 |
| TTTTTTGATG | 1.01 ± 0.027 |
| TTTTTTGCAG | 0.987 ± 0.029 |
| TTTTTTGCCA | 1.01 ± 0.051 |
| TTTTTTGCCC | 1.02 ± 0.048 |
| TTTTTTGCTA | 1.01 ± 0.026 |

| Sequence | switch fluorescence ratio |
| --- | --- |
| TTTTTTGCTG | 0.985 ± 0.026 |
| TTTTTTGGG | 0.9686 ± 0.0027 |
| TTTTTTGGGA | 1.01 ± 0.019 |
| TTTTTTGGGG | 0.984 ± 0.023 |
| TTTTTTGTAT | 1.02 ± 0.087 |
| TTTTTTGTCT | 0.993 ± 0.021 |
| TTTTTTGTGT | 0.991 ± 0.03 |
| TTTTTTGTT | 0.977 ± 0.034 |
| TTTTTTGTTT | 1 ± 0.029 |
| TTTTTTTATA | 0.991 ± 0.024 |
| TTTTTTTCAG | 1.01 ± 0.016 |
| TTTTTTTCGT | 1.07 ± 0.21 |
| TTTTTTTCT | 1.01 ± 0.046 |
| TTTTTTTGAG | 1.02 ± 0.026 |
| TTTTTTTGAT | 1.16 ± 0.53 |
| TTTTTTTGTG | 0.984 ± 0.019 |
| TTTTTTTT | 1.04 ± 0.047 |
| TTTTTTTTGA | 0.998 ± 0.017 |
